Measured values taken from IntAct's records for PubMed 19368893.

B1: ADP-ribosylation factor-like protein 2-binding protein (Homo sapiens), Q9Y2Y0 (parent)
chain: MDALEGESFALSFSSASDAEFDAVVGYLEDIIMDDEFQLLQRNFMDKYYLEFEDTEENKLIYTPIFNEYISLVEKYIEEQLLQRIPEFNMAAFTTTLQHHKDEVAGDIFDMLLTFTDFLAFKEMFLDYRAEKEGRGLDLSSGLVVTSLCKSSSLPASQNNLRH

Variants of: B1
Conditions: with arl2_human ARL2, P36404
Sequence of arl2_human ARL2, P36404 (P36404 whole entry): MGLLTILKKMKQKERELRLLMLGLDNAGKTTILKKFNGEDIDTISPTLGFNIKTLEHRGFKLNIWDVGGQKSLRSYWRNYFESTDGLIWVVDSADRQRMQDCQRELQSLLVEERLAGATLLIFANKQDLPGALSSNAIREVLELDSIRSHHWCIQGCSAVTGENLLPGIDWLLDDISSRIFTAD

| Variant | effect of a mutation on the interaction |
| --- | --- |
| E56A | decreasing interaction |
| F109A | decreasing interaction |
| L112A | decreasing interaction |
| L60A | decreasing interaction |
| E74A | decreasing interaction |
| D110A | decreasing interaction |
| E57A | decreasing interaction |
| F115A | decreasing interaction |
